Starred links: 1 amine or outer side, 2 acyl side, 3 side chain; linkers in the order of their positions; H or OH if unused. Non-standard residues stand in square brackets, D forms with d. *: point of attachment. NPipG = 2-(piperidin-4-ylamino)acetic acid, O=C(CN(C1CCN([*:3])CC1)[*:1])[*:2]; Oic = O=C(O)[C@@H]1C[C@@H]2CCCC[C@@H]2N1; Phe(4-Cl) = N[C@@H](Cc1ccc(Cl)cc1)C(=O)O; Phe(4-F) = N[C@@H](Cc1ccc(F)cc1)C(=O)O; γGlu = O=C(O)[C@H](CCC(=O)[*:2])N[*:1]; d(β3hF) = N[C@@H](CC(=O)O)Cc1ccccc1; Igl = N[C@H](C(=O)O)C1Cc2ccccc2C1; NMeR = CN[C@@H](CCCNC(=N)N)C(=O)O; Palmitoyl = CCCCCCCCCCCCCCCC(=O)*; 3Pal = N[C@@H](Cc1cccnc1)C(=O)O; Cha = N[C@@H](CC1CCCCC1)C(=O)O; αMeOrn = C[C@](N)(CCCN)C(=O)O; β3hP = O=C(O)C[C@@H]1CCCN1; Nle = CCCC[C@H](N)C(=O)O; Dab = NCC[C@H](N)C(=O)O; Dap = NC[C@H](N)C(=O)O; AEEA = NCCOCCOCC(=O)O

The text below walks through data of US10941182 (Amgen, dated 2021).

For one assay, the target named is T1, human APJ receptor (human, UniProt P35414 1-380).
T1 sequence (looked up): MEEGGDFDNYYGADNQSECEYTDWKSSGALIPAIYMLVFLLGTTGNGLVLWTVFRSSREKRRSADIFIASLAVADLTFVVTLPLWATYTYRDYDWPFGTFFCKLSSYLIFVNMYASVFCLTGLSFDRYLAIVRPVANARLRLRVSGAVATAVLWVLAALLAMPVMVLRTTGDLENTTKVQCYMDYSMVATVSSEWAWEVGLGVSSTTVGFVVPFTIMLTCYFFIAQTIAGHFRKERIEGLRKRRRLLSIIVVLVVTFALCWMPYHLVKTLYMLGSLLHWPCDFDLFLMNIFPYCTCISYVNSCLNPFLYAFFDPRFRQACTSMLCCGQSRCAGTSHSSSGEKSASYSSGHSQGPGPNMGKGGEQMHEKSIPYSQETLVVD
The experiment in a line: cell-based or functional assay.

A further assay addresses T2, rat APJ receptor (rat, UniProt Q9JHG3 1-377).
T2 sequence (looked up): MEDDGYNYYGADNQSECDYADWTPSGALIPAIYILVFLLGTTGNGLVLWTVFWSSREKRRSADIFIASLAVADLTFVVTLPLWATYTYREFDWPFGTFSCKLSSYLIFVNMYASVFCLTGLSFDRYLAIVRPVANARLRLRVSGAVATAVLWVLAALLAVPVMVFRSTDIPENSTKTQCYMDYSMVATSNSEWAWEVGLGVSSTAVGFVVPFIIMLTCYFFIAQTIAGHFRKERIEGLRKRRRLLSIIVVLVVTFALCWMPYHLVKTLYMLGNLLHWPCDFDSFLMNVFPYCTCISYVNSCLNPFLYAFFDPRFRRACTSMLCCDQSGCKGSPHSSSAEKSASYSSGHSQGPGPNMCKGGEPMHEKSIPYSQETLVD
Briefly: cell-based or functional assay.

B1: SEQ ID NO: 621 (peptide)
peptide: Palmitoyl-[γGlu][AEEA][AEEA][dQ]RP[NMeR][Cha]SH[Phe(4-Cl)]G[Oic][Nle][β3hP][d(β3hF)]-OH
SMILES: CCCCCCCCCCCCCCCC(=O)N[C@@H](CCC(=O)NCCOCCOCC(=O)NCCOCCOCC(=O)N[C@H](CCC(N)=O)C(=O)N[C@@H](CCCNC(=N)N)C(=O)N1CCC[C@H]1C(=O)N(C)[C@@H](CCCNC(=N)N)C(=O)N[C@@H](CC1CCCCC1)C(=O)N[C@@H](CO)C(=O)N[C@@H](Cc1c[nH]cn1)C(=O)N[C@@H](Cc1ccc(Cl)cc1)C(=O)NCC(=O)N1[C@H](C(=O)N[C@@H](CCCC)C(=O)N2CCC[C@H]2CC(=O)N[C@@H](CC(=O)O)Cc2ccccc2)C[C@@H]2CCCC[C@@H]21)C(=O)O
As to B1, the “EC50 Human APJ Receptor” value in the assay with human APJ receptor came to 16.4 nM. Besides, the “EC50 Rat APJ Receptor” value with rat APJ receptor is 26.1 nM.

B2: SEQ ID NO: 622 (peptide)
peptide: Palmitoyl-[γGlu][AEEA][AEEA][dQ]RP[NMeR][Cha]SH[Phe(4-F)]G[Oic][Nle][β3hP][d(β3hF)]-OH
SMILES: CCCCCCCCCCCCCCCC(=O)N[C@@H](CCC(=O)NCCOCCOCC(=O)NCCOCCOCC(=O)N[C@H](CCC(N)=O)C(=O)N[C@@H](CCCNC(=N)N)C(=O)N1CCC[C@H]1C(=O)N(C)[C@@H](CCCNC(=N)N)C(=O)N[C@@H](CC1CCCCC1)C(=O)N[C@@H](CO)C(=O)N[C@@H](Cc1c[nH]cn1)C(=O)N[C@@H](Cc1ccc(F)cc1)C(=O)NCC(=O)N1[C@H](C(=O)N[C@@H](CCCC)C(=O)N2CCC[C@H]2CC(=O)N[C@@H](CC(=O)O)Cc2ccccc2)C[C@@H]2CCCC[C@@H]21)C(=O)O
Turning to B2, the “EC50 Human APJ Receptor” value with human APJ receptor stood at 11.8 nM. Moreover, the “EC50 Rat APJ Receptor” value with rat APJ receptor was 19.7 nM.

B3: SEQ ID NO: 625 (peptide)
peptide: Palmitoyl-[γGlu][AEEA][AEEA][dQ]RP[NMeR][Cha]SH[Igl]G[Oic][Nle][β3hP][d(β3hF)]-OH
SMILES: CCCCCCCCCCCCCCCC(=O)N[C@@H](CCC(=O)NCCOCCOCC(=O)NCCOCCOCC(=O)N[C@H](CCC(N)=O)C(=O)N[C@@H](CCCNC(=N)N)C(=O)N1CCC[C@H]1C(=O)N(C)[C@@H](CCCNC(=N)N)C(=O)N[C@@H](CC1CCCCC1)C(=O)N[C@@H](CO)C(=O)N[C@@H](Cc1c[nH]cn1)C(=O)N[C@H](C(=O)NCC(=O)N1[C@H](C(=O)N[C@@H](CCCC)C(=O)N2CCC[C@H]2CC(=O)N[C@@H](CC(=O)O)Cc2ccccc2)C[C@@H]2CCCC[C@@H]21)C1Cc2ccccc2C1)C(=O)O
Turning to B3, the “EC50 Human APJ Receptor” value with human APJ receptor came out at 11.1 nM. The “EC50 Rat APJ Receptor” value with rat APJ receptor worked out at 20 nM.

B4: SEQ ID NO: 624 (peptide)
peptide: Palmitoyl-[γGlu][AEEA][AEEA][dQ]RP[NMeR][Cha]SH[Dap]G[Oic][Nle][β3hP][d(β3hF)]-OH
SMILES: CCCCCCCCCCCCCCCC(=O)N[C@@H](CCC(=O)NCCOCCOCC(=O)NCCOCCOCC(=O)N[C@H](CCC(N)=O)C(=O)N[C@@H](CCCNC(=N)N)C(=O)N1CCC[C@H]1C(=O)N(C)[C@@H](CCCNC(=N)N)C(=O)N[C@@H](CC1CCCCC1)C(=O)N[C@@H](CO)C(=O)N[C@@H](Cc1c[nH]cn1)C(=O)N[C@@H](CN)C(=O)NCC(=O)N1[C@H](C(=O)N[C@@H](CCCC)C(=O)N2CCC[C@H]2CC(=O)N[C@@H](CC(=O)O)Cc2ccccc2)C[C@@H]2CCCC[C@@H]21)C(=O)O
Consider B4, for which the “EC50 Human APJ Receptor” value with human APJ receptor came out at 21.1 nM. The “EC50 Rat APJ Receptor” value with rat APJ receptor was found to be 99.7 nM.

B5: SEQ ID NO: 620 (peptide)
peptide: Palmitoyl-[γGlu][AEEA][AEEA][dQ]RP[NMeR][Cha]SH[3Pal]G[Oic][Nle][β3hP][d(β3hF)]-OH
SMILES: CCCCCCCCCCCCCCCC(=O)N[C@@H](CCC(=O)NCCOCCOCC(=O)NCCOCCOCC(=O)N[C@H](CCC(N)=O)C(=O)N[C@@H](CCCNC(=N)N)C(=O)N1CCC[C@H]1C(=O)N(C)[C@@H](CCCNC(=N)N)C(=O)N[C@@H](CC1CCCCC1)C(=O)N[C@@H](CO)C(=O)N[C@@H](Cc1c[nH]cn1)C(=O)N[C@@H](Cc1cccnc1)C(=O)NCC(=O)N1[C@H](C(=O)N[C@@H](CCCC)C(=O)N2CCC[C@H]2CC(=O)N[C@@H](CC(=O)O)Cc2ccccc2)C[C@@H]2CCCC[C@@H]21)C(=O)O
In the case of B5, the “EC50 Human APJ Receptor” value in the assay with human APJ receptor is 7.42 nM. Also, in the assay with rat APJ receptor, the “EC50 Rat APJ Receptor” value came to 14.9 nM.

B6: SEQ ID NO: 619 (peptide)
peptide: Palmitoyl-[γGlu][AEEA][AEEA][dQ]RP[NMeR][Cha]SH[αMeOrn]G[Oic][Nle][β3hP][d(β3hF)]-OH
SMILES: CCCCCCCCCCCCCCCC(=O)N[C@@H](CCC(=O)NCCOCCOCC(=O)NCCOCCOCC(=O)N[C@H](CCC(N)=O)C(=O)N[C@@H](CCCNC(=N)N)C(=O)N1CCC[C@H]1C(=O)N(C)[C@@H](CCCNC(=N)N)C(=O)N[C@@H](CC1CCCCC1)C(=O)N[C@@H](CO)C(=O)N[C@@H](Cc1c[nH]cn1)C(=O)N[C@@](C)(CCCN)C(=O)NCC(=O)N1[C@H](C(=O)N[C@@H](CCCC)C(=O)N2CCC[C@H]2CC(=O)N[C@@H](CC(=O)O)Cc2ccccc2)C[C@@H]2CCCC[C@@H]21)C(=O)O
Consider B6, for which, in the assay with human APJ receptor, the “EC50 Human APJ Receptor” value turned out to be 26.2 nM. Moreover, the “EC50 Rat APJ Receptor” value with rat APJ receptor amounted to 125 nM.

B7: SEQ ID NO: 623 (peptide)
peptide: Palmitoyl-[γGlu][AEEA][AEEA][dQ]RP[NMeR][Cha]SH[Dab]G[Oic][Nle][β3hP][d(β3hF)]-OH
SMILES: CCCCCCCCCCCCCCCC(=O)N[C@@H](CCC(=O)NCCOCCOCC(=O)NCCOCCOCC(=O)N[C@H](CCC(N)=O)C(=O)N[C@@H](CCCNC(=N)N)C(=O)N1CCC[C@H]1C(=O)N(C)[C@@H](CCCNC(=N)N)C(=O)N[C@@H](CC1CCCCC1)C(=O)N[C@@H](CO)C(=O)N[C@@H](Cc1c[nH]cn1)C(=O)N[C@@H](CCN)C(=O)NCC(=O)N1[C@H](C(=O)N[C@@H](CCCC)C(=O)N2CCC[C@H]2CC(=O)N[C@@H](CC(=O)O)Cc2ccccc2)C[C@@H]2CCCC[C@@H]21)C(=O)O
As for B7, the “EC50 Human APJ Receptor” value with human APJ receptor is 1.43 nM. The “EC50 Rat APJ Receptor” value with rat APJ receptor stood at 9.16 nM.

B8: SEQ ID NO: 633 (peptide)
peptide: Palmitoyl-[γGlu][AEEA][AEEA][dQ]RP[NMeR][Cha]SH[NPipG]G[Oic][Nle][β3hP][d(β3hF)]-OH
SMILES: CCCCCCCCCCCCCCCC(=O)N[C@@H](CCC(=O)NCCOCCOCC(=O)NCCOCCOCC(=O)N[C@H](CCC(N)=O)C(=O)N[C@@H](CCCNC(=N)N)C(=O)N1CCC[C@H]1C(=O)N(C)[C@@H](CCCNC(=N)N)C(=O)N[C@@H](CC1CCCCC1)C(=O)N[C@@H](CO)C(=O)N[C@@H](Cc1c[nH]cn1)C(=O)N(CC(=O)NCC(=O)N1[C@H](C(=O)N[C@@H](CCCC)C(=O)N2CCC[C@H]2CC(=O)N[C@@H](CC(=O)O)Cc2ccccc2)C[C@@H]2CCCC[C@@H]21)C1CCNCC1)C(=O)O
Take B8: the “EC50 Human APJ Receptor” value in the assay with human APJ receptor came to 10.7 nM. Further, the “EC50 Rat APJ Receptor” value in the assay with rat APJ receptor is above 4170 nM.
